± gives the standard deviation of the averaged measurements.
Test: total protein half-life in vivo (active degradation + dilution); higher = more stable protein
[1] = E. coli NCM3722 delta-clpP delta-lon delta-hslV, growth: N-lim chemostat, doubling time 6 h
[2] = E. coli NCM3722 delta-clpP, growth: N-lim chemostat, doubling time 6 h
[3] = E. coli NCM3722 delta-hslV, growth: N-lim chemostat, doubling time 6 h
[4] = E. coli NCM3722 delta-lon, growth: N-lim chemostat, doubling time 6 h
[5] = E. coli NCM3722 delta-smpB, growth: N-lim chemostat, doubling time 6 h
[6] = wild type E. coli NCM3722, growth: C-lim chemostat, doubling time 3 h
[7] = wild type E. coli NCM3722, growth: C-lim chemostat, doubling time 6 h
[8] = wild type E. coli NCM3722, growth: C-lim chemostat, doubling time 12 h
[9] = wild type E. coli NCM3722, growth: N-lim chemostat, doubling time 6 h
[10] = wild type E. coli NCM3722, growth: N-lim chemostat, doubling time 12 h
[11] = wild type E. coli NCM3722, growth: P-lim chemostat, doubling time 6 h
[12] = wild type E. coli NCM3722, growth: P-lim chemostat, doubling time 12 h

| Sequence | total protein half-life in vivo [1] [h] | total protein half-life in vivo [2] [h] | total protein half-life in vivo [3] [h] | total protein half-life in vivo [4] [h] | total protein half-life in vivo [5] [h] | total protein half-life in vivo [6] [h] | total protein half-life in vivo [7] [h] | total protein half-life in vivo [8] [h] | total protein half-life in vivo [9] [h] | total protein half-life in vivo [10] [h] | total protein half-life in vivo [11] [h] | total protein half-life in vivo [12] [h] |
| --- | --- | --- | --- | --- | --- | --- | --- | --- | --- | --- | --- | --- |
| MAEKFIKHTGLVVPLDAANVDTDAIIPKQFLQKVTRTGFGAHLFNDWRFLDEKGQQPNPDFVLNFPQYQGASILLARENFGCGSSREHAPWALTDYGFKVVIAPSFADIFYGNSFNNQLLPVKLSDAEVDELFALVKANPGIHFDVDLEAQEVKAGEKTYRFTIDAFRRHCMMNGLDSIGLTLQHDDAIAAYEAKQPAFMN | 3.91 ± 0.1 | 1.33 ± 0.047 | 2.363 ± 0.02 | 3.85 ± 0.072 | 2.306 ± 0.018 | 1.96 ± 0.16 | 3.02 ± 0.097 | 3.926 ± 0.038 | 2.54 ± 0.17 | 4.05 ± 1.3 | 2.1 ± 0.28 | 5.15 ± 0.8 |
| MMVQHLKRRPLSRYLKDFKHSQTHCAHCRKLLDRITLVRDGKIVNKIEISRLDTLLDENGWQTEQKSWAALCRFCGDLHCKTQSDFFDIIGFKQFLFEQTEMSPGTVREYVVRLRRLGNHLHEQNISLDQLQDGFLDEILAPWLPTTSTNNYRIALRKYQHYQRQTCTRLVQKSSSLPSSDIY | 6.005 ± 0.037 |  |  |  |  | 0.828 ± 0.34 |  | 1.23 |  |  |  |  |
| MNKFLFAAALIVSGLLVGCNQLTQYTITEQEINQSLAKHNNFSKDIGLPGVADAHIVLTNLTSQIGREEPNKVTLTGDANLDMNSLFGSQKATMKLKLKALPVFDKEKGAIFLKEMEVVDATVQPEKMQTVMQTLLPYLNQALRNYFNQQPAYVLREDGSQGEAMAKKLAKGIEVKPGEIVIPFTD [P0AB26] |  |  | 6.63 ± 0.84 | 6.72 ± 0.38 | 6.38 ± 0.15 | 3.55 ± 0.36 | 5.37 ± 0.43 | 11.9 ± 1.5 | 5.75 ± 0.34 | 13.4 ± 0.43 | 6.01 ± 0.25 | 12.36 ± 0.048 |
| MNNLPVVRSPWRIVILLLGFTFLYAPMLMLVIYSFNSSKLVTVWAGWSTRWYGELLRDDAMMSAVGLSLTIAACAATAAAILGTIAAVVLVRFGRFRGSNGFAFMITAPLVMPDVITGLSLLLLFVALAHAIGWPADRGMLTIWLAHVTFCTAYVAVVISSRLRELDRSIEEAAMDLGATPLKVFFVITLPMIMPAIISGWLLAFTLSLDDLVIASFVSGPGATTLPMLVFSSVRMGVNPEINALATLILGAVGIVGFIAWYLMARAEKQRIRDIQRARRG [P0AFL1] | 5.96 |  |  |  |  |  |  |  |  | > 16 |  | 10.3 |
| MSQSEFDSALPNGIGLAPYLRMKQEGMTENESRIVEWLLKPGNLSCAPAIKDVAEALAVSEAMIVKVSKLLGFSGFRNLRSALEDYFSQSEQVLPSELAFDEAPQDVVNKVFNITLRTIMEGQSIVNVDEIHRAARFFYQARQRDLYGAGGSNAICADVQHKFLRIGVRCQAYPDAHIMMMSASLLQEGDVVLVVTHSGRTSDVKAAVELAKKNGAKIICITHSYHSPIAKLADYIICSPAPETPLLGRNASARILQLTLLDAFFVSVAQLNIEQANINMQKTGAIVDFFSPGALK [P0ACS7] | 6.33 ± 0.37 | 6 ± 0.24 | 5.5 ± 0.74 | 5.71 | 5.56 ± 0.55 | 3.07 ± 0.4 | 6.86 ± 0.23 | 14.6 ± 1.1 | 5.77 ± 0.44 | 11.3 ± 1.8 | 6.09 ± 0.2 | 12.5 ± 1.1 |
| MRFMQRSKDSLAKWLSAILPVVIVGLVGLFAVTVIRDYGRASEADRQALLEKGNVLIRALESGSRVGMGMRMHHVQQQALLEEMAGQPGVLWFAVTDAQGIIILHSDPDKVGRALYSPDEMQKLKPEENSRWRLLGKTETTPALEVYRLFQPMSAPWRHGMHNMPRCNGKAVPQVDAQQAIFIAVDASDLVATQSGEKRNTLIILFALATVLLASVLSFFWYRRYLRSRQLLQDEMKRKEKLVALGHLAAGVAHEIRNPLSSIKGLAKYFAERAPAGGEAHQLAQVMAKEADRLNRVVSELLELVKPTHLALQAVDLNTLINHSLQLVSQDANSREIQLRFTANDTLPEIQADPDRLTQVLLNLYLNAIQAIGQHGVISVTASESGAGVKISVTDSGKGIAADQLDAIFTPYFTTKAEGTGLGLAVVHNIVEQHGGTIQVASQEGKGSTFTLWLPVNITRKDPQG | 5.89 |  | 6.11 ± 0.45 |  | 5.27 ± 0.29 | 3.57 ± 0.24 | 4.91 | 13.4 ± 2.7 | 5.12 | 14.1 |  | 11.4 ± 0.38 |
| MNIIEANVATPDARVAITIARFNNFINDSLLEGAIDALKRIGQVKDENITVVWVPGAYELPLAAGALAKTGKYDAVIALGTVIRGGTAHFEYVAGGASNGLAHVAQDSEIPVAFGVLTTESIEQAIERAGTKAGNKGAEAALTALEMINVLKAIKA |  | 6.4 ± 0.16 | 6.59 ± 0.59 |  | 5.79 ± 0.1 | 3.16 ± 0.054 | 6.41 ± 0.27 | 13.7 ± 0.27 | 6.17 ± 0.85 | 12.8 ± 0.8 | 5.73 ± 0.29 | 13.6 ± 0.3 |
| MPEGPEIRRAADNLEAAIKGKPLTDVWFAFPQLKPYQSQLIGQHVTHVETRGKALLTHFSNDLTLYSHNQLYGVWRVVDTGEEPQTTRVLRVKLQTADKTILLYSASDIEMLTPEQLTTHPFLQRVGPDVLDPNLTPEVVKERLLSPRFRNRQFAGLLLDQAFLAGLGNYLRVEILWQVGLTGNHKAKDLNAAQLDALAHALLEIPRFSYATRGQVDENKHHGALFRFKVFHRDGEPCERCGSIIEKTTLSSRPFYWCPGCQH | 5.54 ± 0.6 | 5.55 ± 0.23 | 6.197 ± 0.018 | 6.19 ± 0.85 | 4.38 ± 0.63 | 2.36 ± 0.55 |  | 9.48 | 5.45 | 11 ± 0.57 |  | 7.33 |
| MSVIIVGGGMAGATLALAISRLSHGALPVHLIEATAPESHAHPGFDGRAIALAAGTCQQLARIGVWQSLADCATAITTVHVSDRGHAGFVTLAAEDYQLAALGQVVELHNVGQRLFALLRKAPGVTLHCPDRVANVARTQSHVEVTLESGETLTGRVLVAADGTHSALATACGVDWQQEPYEQLAVIANVATSVAHEGRAFERFTQHGPLAMLPMSDGRCSLVWCHPLERREEVLSWSDEKFCRELQSAFGWRLGKITHAGKRSAYPLALTHAARSITHRTVLVGNAAQTLHPIAGQGFNLGMRDVMSLAETLTQAQERGEDMGDYGVLCRYQQRRQSDREATIGVTDSLVHLFANRWAPLVVGRNIGLMTMELFTPARDVLAQRTLGWVAR | 5.61 ± 0.23 | 4.77 ± 0.24 | 6.05 ± 2.4 | 3.69 ± 0.053 | 4.23 ± 0.17 | 2.72 ± 0.17 | 4.42 ± 0.18 | 6.83 ± 0.21 | 4.24 ± 1.1 | 9.5 | 2.82 ± 0.096 | 4.59 ± 0.42 |
